The results in this text go back to patent US20140242080A1 (Hoffmann-La Roche, published 2014).

Test [1] deals with T1, human CEA expressed on tumor cells (LS-174T, A549-huCEA, MKN-45, MC38-huCEA, HPAFII, BxPC-3, ASPC-1) (human, UniProt P06731 35-685).
T1 sequence (looked up): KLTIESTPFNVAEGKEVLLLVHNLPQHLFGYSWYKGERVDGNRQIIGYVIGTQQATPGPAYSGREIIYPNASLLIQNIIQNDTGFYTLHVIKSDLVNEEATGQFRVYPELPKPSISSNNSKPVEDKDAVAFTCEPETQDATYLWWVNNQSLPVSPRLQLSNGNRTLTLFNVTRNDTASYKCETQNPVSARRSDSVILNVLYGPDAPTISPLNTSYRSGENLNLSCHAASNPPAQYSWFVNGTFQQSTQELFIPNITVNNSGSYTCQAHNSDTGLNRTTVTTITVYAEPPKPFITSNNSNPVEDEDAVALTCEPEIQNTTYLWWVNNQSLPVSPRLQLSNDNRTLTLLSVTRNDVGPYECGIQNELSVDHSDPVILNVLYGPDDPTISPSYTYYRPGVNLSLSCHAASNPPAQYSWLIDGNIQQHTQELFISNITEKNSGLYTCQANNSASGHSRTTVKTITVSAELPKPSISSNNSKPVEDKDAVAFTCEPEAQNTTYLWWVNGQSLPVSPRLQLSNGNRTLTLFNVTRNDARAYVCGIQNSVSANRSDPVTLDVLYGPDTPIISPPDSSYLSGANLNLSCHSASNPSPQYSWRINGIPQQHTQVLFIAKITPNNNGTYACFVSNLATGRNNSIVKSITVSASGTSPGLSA
Briefly: cell-based or functional assay.

For test [2], the target named is T1, human CEA expressed on tumor cells …. Briefly: flow cytometry on LS-174T cells. Here is the method: Binding of the different bispecific constructs to CD3 on Jurkat cells (ATCC #TIB-152), and the respective tumor antigen on target cells, was determined by FACS. Briefly, cells were harvested, counted and checked for viability. 0.15-0.2 million cells per well (in PBS containing 0.1% BSA; 90 μl) were plated in a round-bottom 96-well plate and incubated with the indicated concentration of the bispecific constructs and corresponding IgG controls (10 μl) for 30 min at 4° C. […] After the incubation, cells were centrifuged (5 min, 350×g), washed with 150 μl PBS containing 0.1% BSA, resuspended and incubated for further 30 min at 4° C. with 12 μl/well of a FITC- or PE-conjugated secondary antibody. Bound constructs were detected using a FACSCantoII (Software FACS Diva). The “(scFv)₂” molecule was detected using a FITC-conjugated anti-His antibody (Lucerna, #RHIS-45F-Z). […] EC50 values were calculated using the GraphPad Prism software.
As a control, the equivalent maximum concentration of the corresponding IgGs and the background staining due to the labeled 2ndary antibody (goat anti-human FITC-conjugated AffiniPure F(ab′)2 Fragment, FcγFragment-specific, Jackson Immuno Research Lab #109-096-098) were assessed as well.
In general terms: Flow cytometry measures light scatter and fluorescence of single cells or particles in a stream.

For test [3], the target named is T2, human CD3 expressed on Jurkat cells (human, UniProt P07766 23-207).
T2 construct: CD3 complex on Jurkat T cells; also called CD3 on Jurkat cells; huCD3
T2 sequence (P07766 23-207 limits assumed): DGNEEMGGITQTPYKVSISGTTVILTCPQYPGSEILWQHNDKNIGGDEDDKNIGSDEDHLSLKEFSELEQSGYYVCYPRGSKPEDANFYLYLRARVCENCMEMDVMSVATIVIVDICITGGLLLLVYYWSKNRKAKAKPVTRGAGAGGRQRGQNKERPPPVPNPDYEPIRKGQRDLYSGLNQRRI
Nature of the test: flow cytometry on Jurkat cells.

Test [4] concerns the target T1, human CEA expressed on tumor cells …. Nature of the test: cell-based or functional assay. The source holds these as a separate data set.
In test [5] the target is T3, human CD3ε stalk-Fc (knob)-Avi/CD3δ-stalk-Fc(hole) (human).
T3 construct: also called Human CD3ε/CD3δ; recombinant CD3ε/CD3δ
T3 sequence (chain, as listed by the source mutant limits assumed, chain 1 of 2): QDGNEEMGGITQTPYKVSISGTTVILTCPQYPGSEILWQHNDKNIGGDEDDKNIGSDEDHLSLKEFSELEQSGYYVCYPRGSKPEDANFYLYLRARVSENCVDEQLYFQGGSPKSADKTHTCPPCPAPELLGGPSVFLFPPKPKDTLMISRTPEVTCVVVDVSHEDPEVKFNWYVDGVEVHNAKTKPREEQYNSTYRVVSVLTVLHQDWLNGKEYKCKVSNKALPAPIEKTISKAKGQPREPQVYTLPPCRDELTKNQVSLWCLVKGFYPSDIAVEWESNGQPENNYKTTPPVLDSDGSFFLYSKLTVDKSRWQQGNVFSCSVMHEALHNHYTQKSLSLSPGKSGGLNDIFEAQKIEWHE
T3 sequence (chain, as listed by the source mutant limits assumed, chain 2 of 2): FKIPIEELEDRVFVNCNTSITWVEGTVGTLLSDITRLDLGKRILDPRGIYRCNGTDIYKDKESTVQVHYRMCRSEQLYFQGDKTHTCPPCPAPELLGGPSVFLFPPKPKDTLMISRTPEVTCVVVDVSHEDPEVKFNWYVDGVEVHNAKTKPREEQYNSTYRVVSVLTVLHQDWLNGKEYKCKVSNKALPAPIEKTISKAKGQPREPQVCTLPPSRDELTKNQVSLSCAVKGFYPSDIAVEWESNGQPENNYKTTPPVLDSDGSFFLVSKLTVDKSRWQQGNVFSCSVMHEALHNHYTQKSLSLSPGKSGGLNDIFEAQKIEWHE
Nature of the test: SPR Biacore T100, 25 C; t1/2 = ln 2/koff. As to the method:
(§1) Surface plasmon resonance (SPR) experiments were performed on a Biacore T100 at 25° C. with HBS-EP as running buffer (0.01 M HEPES pH 7.4, 0.15 M NaCl, 3 mM EDTA, 0.005% Surfactant P20, Biacore, Freiburg/Germany).
(§2) Kinetic constants were derived using the Biacore T200 Evaluation Software (vAA, Biacore AB, Uppsala/Sweden), to fit rate equations for 1:1 Langmuir binding by numerical integration. The half-life (t_{1/2}) of the interaction was calculated using following formula: t_{1/2}=ln 2/koff.
In general terms: SPR reads the build-up and loss of mass on a sensor chip optically.

For test [6], the target named is T4, human NABA-avi-his (human).
T4 construct: Chimeric antigen with a C-terminal avi 6his tag; also called recombinant tumor target antigen
T4 chain: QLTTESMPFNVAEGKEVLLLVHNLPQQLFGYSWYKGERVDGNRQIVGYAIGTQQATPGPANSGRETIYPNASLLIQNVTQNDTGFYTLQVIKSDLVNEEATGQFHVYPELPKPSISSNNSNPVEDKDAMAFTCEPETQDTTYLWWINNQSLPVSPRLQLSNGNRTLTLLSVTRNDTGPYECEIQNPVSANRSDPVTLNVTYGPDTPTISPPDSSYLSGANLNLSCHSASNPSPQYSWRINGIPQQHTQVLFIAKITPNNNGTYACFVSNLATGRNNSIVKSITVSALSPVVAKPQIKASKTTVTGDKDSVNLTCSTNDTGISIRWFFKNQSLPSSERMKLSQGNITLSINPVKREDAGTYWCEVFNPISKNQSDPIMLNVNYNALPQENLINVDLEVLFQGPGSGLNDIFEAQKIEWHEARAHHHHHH
Nature of the test: SPR Biacore T100, 25 C; t1/2 = ln 2/koff. Here is the method: as §1, §2

The target in test [7] is T1, human CEA expressed on tumor cells …. Briefly: flow cytometry on A549-huCEA cells. Here is the method: Briefly, cells were harvested, counted, checked for viability and resuspended at 2×10⁶ cells/ml in FACS buffer (100 μl PBS 0.1% BSA).
Test [8] has as its target T3, human CD3ε stalk-Fc …. Briefly: SPR Biacore T100, 25 C; TCB captured via anti-human Fab, antigen as analyte.
Test [9] deals with T4, human NABA-avi-his. The description is as above.

B1: 2 + 1 IgG Crossfab, inverted; CL/CH1 exchange (CH1A1A/V9) (anti-CEA/anti-huCD3) (bispecific antibody)
chain 1: QVQLVQSGAEVKKPGASVKVSCKASGYTFTEFGMNWVRQAPGQGLEWMGWINTKTGEATYVEEFKGRVTFTTDTSTSTAYMELRSLRSDDTAVYYCARWDFAYYVEAMDYWGQGTTVTVSSASTKGPSVFPLAPSSKSTSGGTAALGCLVKDYFPEPVTVSWNSGALTSGVHTFPAVLQSSGLYSLSSVVTVPSSSLGTQTYICNVNHKPSNTKVDKKVEPKSCDKTHTCPPCPAPEAAGGPSVFLFPPKPKDTLMISRTPEVTCVVVDVSHEDPEVKFNWYVDGVEVHNAKTKPREEQYNSTYRVVSVLTVLHQDWLNGKEYKCKVSNKALGAPIEKTISKAKGQPREPQVCTLPPSRDELTKNQVSLSCAVKGFYPSDIAVEWESNGQPENNYKTTPPVLDSDGSFFLVSKLTVDKSRWQQGNVFSCSVMHEALHNHYTQKSLSLSPGK
chain 2: DIQMTQSPSSLSASVGDRVTITCKASAAVGTYVAWYQQKPGKAPKLLIYSASYRKRGVPSRFSGSGSGTDFTLTISSLQPEDFATYYCHQYYTYPLFTFGQGTKLEIKRTVAAPSVFIFPPSDEQLKSGTASVVCLLNNFYPREAKVQWKVDNALQSGNSQESVTEQDSKDSTYSLSSTLTLSKADYEKHKVYACEVTHQGLSSPVTKSFNRGEC
chain 3: DIQMTQSPSSLSASVGDRVTITCRASQDIRNYLNWYQQKPGKAPKLLIYYTSRLESGVPSRFSGSGSGTDYTLTISSLQPEDFATYYCQQGNTLPWTFGQGTKVEIKSSASTKGPSVFPLAPSSKSTSGGTAALGCLVKDYFPEPVTVSWNSGALTSGVHTFPAVLQSSGLYSLSSVVTVPSSSLGTQTYICNVNHKPSNTKVDKKVEPKSC
chain 4: not shown
notes: also called CL/CH1-exchange construct
On to B1, for which the “EC50 of T cell-mediated killing (LDH release), LS-174T cells, human PBMCs E:T 10:1, 28 h” value in [1] was 0.673 nM. Also, the “EC50 of T cell-mediated killing (LDH release), MKN-45 cells, human PBMCs E:T 10:1, 28 h” value in [1] was found to be 0.115 nM. Further, the figures for the EC50 in [2] and in test [3] were 6.7 nM and 3.9 nM, respectively.

B2: 2 + 1 IgG Crossfab, inverted; VL/VH exchange (CH1A1A/V9) (anti-CEA/anti-huCD3) (bispecific antibody)
chain 1: EVQLVESGGGLVQPGGSLRLSCAASGYSFTGYTMNWVRQAPGKGLEWVALINPYKGVSTYNQKFKDRFTISVDKSKNTAYLQMNSLRAEDTAVYYCARSGYYGDSDWYFDVWGQGTLVTVSSASVAAPSVFIFPPSDEQLKSGTASVVCLLNNFYPREAKVQWKVDNALQSGNSQESVTEQDSKDSTYSLSSTLTLSKADYEKHKVYACEVTHQGLSSPVTKSFNRGEC
chain 2: not shown
chain 3: QVQLVQSGAEVKKPGASVKVSCKASGYTFTEFGMNWVRQAPGQGLEWMGWINTKTGEATYVEEFKGRVTFTTDTSTSTAYMELRSLRSDDTAVYYCARWDFAYYVEAMDYWGQGTTVTVSSASTKGPSVFPLAPSSKSTSGGTAALGCLVKDYFPEPVTVSWNSGALTSGVHTFPAVLQSSGLYSLSSVVTVPSSSLGTQTYICNVNHKPSNTKVDKKVEPKSCDKTHTCPPCPAPEAAGGPSVFLFPPKPKDTLMISRTPEVTCVVVDVSHEDPEVKFNWYVDGVEVHNAKTKPREEQYNSTYRVVSVLTVLHQDWLNGKEYKCKVSNKALGAPIEKTISKAKGQPREPQVCTLPPSRDELTKNQVSLSCAVKGFYPSDIAVEWESNGQPENNYKTTPPVLDSDGSFFLVSKLTVDKSRWQQGNVFSCSVMHEALHNHYTQKSLSLSPGK
chain 4: DIQMTQSPSSLSASVGDRVTITCKASAAVGTYVAWYQQKPGKAPKLLIYSASYRKRGVPSRFSGSGSGTDFTLTISSLQPEDFATYYCHQYYTYPLFTFGQGTKLEIKRTVAAPSVFIFPPSDEQLKSGTASVVCLLNNFYPREAKVQWKVDNALQSGNSQESVTEQDSKDSTYSLSSTLTLSKADYEKHKVYACEVTHQGLSSPVTKSFNRGEC
notes: also called VL/VH-exchange construct
Turning to B2, in test [1], the “EC50 of T cell-mediated killing (LDH release), LS-174T cells, human PBMCs E:T 10:1, 28 h” value stood at 0.955 nM. For the same molecule, in test [1], the “EC50 of T cell-mediated killing (LDH release), MKN-45 cells, human PBMCs E:T 10:1, 28 h” value is 0.243 nM. Also, the values for the EC50 in test [2] and in [3] were 9.3 nM and 4.6 nM, respectively.

B3: CEA TCB (2+1 Crossfab-IgG P329G LALA inverted) (bispecific antibody)
chain 1: DIQMTQSPSSLSASVGDRVTITCKASAAVGTYVAWYQQKPGKAPKLLIYSASYRKRGVPSRFSGSGSGTDFTLTISSLQPEDFATYYCHQYYTYPLFTFGQGTKLEIKRTVAAPSVFIFPPSDEQLKSGTASVVCLLNNFYPREAKVQWKVDNALQSGNSQESVTEQDSKDSTYSLSSTLTLSKADYEKHKVYACEVTHQGLSSPVTKSFNRGEC
chain 2: QAVVTQEPSLTVSPGGTVTLTCGSSTGAVTTSNYANWVQEKPGQAFRGLIGGTNKRAPGTPARFSGSLLGGKAALTLSGAQPEDEAEYYCALWYSNLWVFGGGTKLTVLSSASTKGPSVFPLAPSSKSTSGGTAALGCLVKDYFPEPVTVSWNSGALTSGVHTFPAVLQSSGLYSLSSVVTVPSSSLGTQTYICNVNHKPSNTKVDKKVEPKSC
chain 3: not shown
chain 4: QVQLVQSGAEVKKPGASVKVSCKASGYTFTEFGMNWVRQAPGQGLEWMGWINTKTGEATYVEEFKGRVTFTTDTSTSTAYMELRSLRSDDTAVYYCARWDFAYYVEAMDYWGQGTTVTVSSASTKGPSVFPLAPSSKSTSGGTAALGCLVKDYFPEPVTVSWNSGALTSGVHTFPAVLQSSGLYSLSSVVTVPSSSLGTQTYICNVNHKPSNTKVDKKVEPKSCDKTHTCPPCPAPEAAGGPSVFLFPPKPKDTLMISRTPEVTCVVVDVSHEDPEVKFNWYVDGVEVHNAKTKPREEQYNSTYRVVSVLTVLHQDWLNGKEYKCKVSNKALGAPIEKTISKAKGQPREPQVCTLPPSRDELTKNQVSLSCAVKGFYPSDIAVEWESNGQPENNYKTTPPVLDSDGSFFLVSKLTVDKSRWQQGNVFSCSVMHEALHNHYTQKSLSLSPGK
notes: CH1A1A 98/99 2F1 as anti-CEA and humanized CH2527 as anti-CD3 antibody; also called CEA TCB antibody
Regarding B3, in [4], the “EC50 [pM] 48 h of T-cell mediated killing (LDH release), ASPC1 cells, human PBMCs E:T 10:1” value was 846 pM; the “EC50 [pM] 48 h of T-cell mediated killing (LDH release), BxPC-3 cells, human PBMCs E:T 10:1” value was 3780 pM; the “EC50 [pM] 48 h of T-cell mediated killing (LDH release), HPAFII cells, human PBMCs E:T 10:1” value stood at 667 pM. In addition, the t1/2 in test [5] was determined as 5.7 min. The t1/2 in test [6] is 5.3 min. The EC50 (commonly the concentration at which the effect is half-maximal) in test [7] worked out at 6.6 nM. Besides, in test [1], the “EC50 of T cell-mediated killing (LDH release), A549-hCEA cells, cynomolgus PBMCs E:T 10:1, 40 h” value amounted to 0.102 nM and the “EC50 of T cell-mediated killing (LDH release), A549-hCEA cells, human PBMCs E:T 10:1, 40 h” value was found to be 0.306 nM. In test [8], the Kd (in general, the free concentration of one partner at which half of the binding sites on the other are occupied at equilibrium, for simple one-to-one binding) worked out at 75.3 nM; the dissociation rate constant (koff) (usually the rate constant with which the complex falls apart) came out at 0.00203 s⁻¹; the on-rate (kon) (commonly the rate constant with which the complex forms) was determined as 26900 M⁻¹ s⁻¹. In test [9], this molecule yielded a Kd of 62.4 nM, a dissociation rate constant (koff) of 0.00218 s⁻¹ and a kon of 34900 M⁻¹ s⁻¹.
